Reference: patent publication US20200317768A1 (published 2020)

How the values were obtained:
Test in all cases: SPR (Biacore); KD of SG1 divided by KD of the variant for this FcgR;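 further: relative to parent M103205H795-SG1 carrying the SG1 human heavy chain constant region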
[1] = target: T1, cynomolgus monkey FcγRIIa1 extracellular domain with C-terminal His-tag (cynomolgus monkey)
T1 construct: Expressed in FreeStyle 293 cells and purified; also called cyno FcγRIIa1; cynoFcgRIIa1; not shown: C-terminal His-tag
T1 chain: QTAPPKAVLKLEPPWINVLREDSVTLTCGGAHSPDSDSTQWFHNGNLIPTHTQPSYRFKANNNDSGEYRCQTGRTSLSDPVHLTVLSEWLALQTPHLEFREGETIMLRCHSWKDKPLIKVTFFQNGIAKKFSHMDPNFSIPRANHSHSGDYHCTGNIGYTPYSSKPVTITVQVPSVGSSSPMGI

[2] = target: T2, cynomolgus monkey FcγRIIa2 extracellular domain with C-terminal His-tag (cynomolgus monkey)
T2 construct: Expressed in FreeStyle 293 cells and purified; also called cyno FcγRIIa2; cynoFcgRIIa2; not shown: C-terminal His-tag
T2 chain: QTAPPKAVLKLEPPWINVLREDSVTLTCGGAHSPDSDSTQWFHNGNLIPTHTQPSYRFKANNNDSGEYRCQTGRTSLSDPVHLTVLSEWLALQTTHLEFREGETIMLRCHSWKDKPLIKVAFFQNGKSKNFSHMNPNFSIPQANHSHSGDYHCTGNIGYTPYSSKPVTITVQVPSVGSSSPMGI

[3] = target: T3, human FcγRIIb extracellular domain with C-terminal His-tag (human, UniProt P31994 43-217)
T3 construct: Expressed in FreeStyle 293 cells and purified; also called humanFcgRIIb; not shown: C-terminal His-tag
T3 sequence: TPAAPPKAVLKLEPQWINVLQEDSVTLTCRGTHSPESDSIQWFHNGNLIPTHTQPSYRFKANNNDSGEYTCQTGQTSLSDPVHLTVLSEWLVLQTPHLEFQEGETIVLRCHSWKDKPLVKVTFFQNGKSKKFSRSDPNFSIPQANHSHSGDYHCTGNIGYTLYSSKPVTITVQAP

[4] = target: T4, cynomolgus monkey FcγRIIIaS extracellular domain with C-terminal His-tag (cynomolgus monkey, UniProt Q8SPW2 21-206 at identity 1.00))
T4 construct: Expressed in FreeStyle 293 cells and purified; also called cyno FcγRIIIaS; cynoFcγRIIIaS; not shown: C-terminal His-tag
T4 chain: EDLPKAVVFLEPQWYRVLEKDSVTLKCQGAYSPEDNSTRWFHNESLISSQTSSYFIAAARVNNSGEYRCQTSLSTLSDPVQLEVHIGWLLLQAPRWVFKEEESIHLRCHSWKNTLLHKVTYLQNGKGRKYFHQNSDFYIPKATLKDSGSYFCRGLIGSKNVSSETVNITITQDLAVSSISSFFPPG

[5] = target: T5, cynomolgus monkey FcγRIIb extracellular domain with C-terminal His-tag (cynomolgus monkey)
T5 construct: Expressed in FreeStyle 293 cells and purified; also called cyno FcγRIIb; cynoFcγRIIb; not shown: C-terminal His-tag
T5 chain: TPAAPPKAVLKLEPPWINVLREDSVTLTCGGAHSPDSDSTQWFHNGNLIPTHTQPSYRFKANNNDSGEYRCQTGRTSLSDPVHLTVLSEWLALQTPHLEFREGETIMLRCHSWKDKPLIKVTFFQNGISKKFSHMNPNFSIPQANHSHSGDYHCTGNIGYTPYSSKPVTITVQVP

[6] = target: T6, human FcγRIIaR extracellular domain with C-terminal His-tag (human, UniProt P12318 34-217)
T6 construct: Expressed in FreeStyle 293 cells and purified; also called human FcγRIIa (type R); FcgRIIaR; not shown: C-terminal His-tag
T6 chain: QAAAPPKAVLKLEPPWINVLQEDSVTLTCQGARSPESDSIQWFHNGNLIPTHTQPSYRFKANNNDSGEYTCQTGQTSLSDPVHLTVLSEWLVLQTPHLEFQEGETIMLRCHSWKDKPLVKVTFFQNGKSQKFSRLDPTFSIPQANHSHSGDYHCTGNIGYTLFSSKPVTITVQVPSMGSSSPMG

[7] = target: T7, cynomolgus monkey FcγRIIa3 extracellular domain with C-terminal His-tag (cynomolgus monkey)
T7 construct: Expressed in FreeStyle 293 cells and purified; also called cyno FcγRIIa3; cynoFcgRIIa3; not shown: C-terminal His-tag
T7 chain: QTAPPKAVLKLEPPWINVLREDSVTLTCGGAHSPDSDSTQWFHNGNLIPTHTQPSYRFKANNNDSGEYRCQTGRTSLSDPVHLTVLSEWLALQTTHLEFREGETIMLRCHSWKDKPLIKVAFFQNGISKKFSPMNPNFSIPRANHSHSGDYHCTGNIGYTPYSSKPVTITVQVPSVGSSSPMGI

[8] = target: T8, human FcγRIIIaV extracellular domain with C-terminal His-tag (human, UniProt P08637 17-208)
T8 construct: Expressed in FreeStyle 293 cells and purified; also called FcgRIIIaV; not shown: C-terminal His-tag

[9] = target: T9, human FcγRIIaH extracellular domain with C-terminal His-tag (human, UniProt P12318 34-217)
T9 construct: Expressed in FreeStyle 293 cells and purified; also called human FcγRIIa (type H); FcgRIIaH; not shown: C-terminal His-tag
T9 sequence: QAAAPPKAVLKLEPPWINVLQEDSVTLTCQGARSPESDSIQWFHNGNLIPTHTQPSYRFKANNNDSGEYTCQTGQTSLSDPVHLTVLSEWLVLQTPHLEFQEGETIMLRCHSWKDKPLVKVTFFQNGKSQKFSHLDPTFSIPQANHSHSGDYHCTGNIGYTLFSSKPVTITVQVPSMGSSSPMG

T8 sequence (P08637 17-208 F176V): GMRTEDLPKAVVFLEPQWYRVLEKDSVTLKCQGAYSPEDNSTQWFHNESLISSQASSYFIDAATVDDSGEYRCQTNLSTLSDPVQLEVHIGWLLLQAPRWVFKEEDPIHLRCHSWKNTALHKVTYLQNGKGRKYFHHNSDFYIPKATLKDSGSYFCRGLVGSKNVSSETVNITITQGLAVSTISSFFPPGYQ

| Binder | KD fold (SG1 = 1) [1] | KD fold (SG1 = 1) [2] | KD fold (SG1 = 1) [3] | KD fold (SG1 = 1) [4] | KD fold (SG1 = 1) [5] | KD fold (SG1 = 1) [6] | KD fold (SG1 = 1) [7] | KD fold (SG1 = 1) [8] | KD fold (SG1 = 1) [9] |
| --- | --- | --- | --- | --- | --- | --- | --- | --- | --- |
| M103205H795-MY212 / M103202L889-SK1 (antibody, human IgG1, kappa, Fc variant of M103205H795-SG1, expressed with M103202L889-SK1 as light chain) heavy: QVTLKESGPVLVKPTETLTLTCTVSGIDLSHDDISWVRQAPGKGLEWVGIISYAGSTYYASWAKGRLTISKDTSKNQVVLTMTNMDPVDTATYYCARGVPAYSHGGDLWGQGTLVTVSSASTKGPSVFPLAPSSKSTSGGTAALGCLVKDYFPEPVTVSWNSGALTSGVHTFPAVLQSSGLYSLSSVVTVPSSSLGTQTYICNVNHKPSNTKVDKKVEPKSCDKTHTCPPCPAPELLNGPVVFLFPPKPKDTLMISRTPEVTCVVVDVSDEDPEVKFNWYVDGVEVHNAKTKPREELYNSTYRVVSVLTVLHQDWLNGKEYKCKVSNTALPKPIEKTISKAKGQPREPQVYTLPPSREEMTKNQVSLTCLVKGFYPSDIAVEWESNGQPENNYKTTPPVLDSDGSFFLYSKLTVDKSRWQQGNVFSCSVMHEALHNHYTQKSLSLSP light: DIVMTQSPATLSLSPGERATLSCTSSQSVYHANWLSWFQQKPGQPPKLLIYWASTLAYGVPSRFSGSGSGTDFTLTISSLQPEDAATYYCAGGYGGGRYAFGQGTKVEIKRTVAAPSVFIFPPSDEQLKSGTASVVCLLNNFYPREAKVQWKVDNALQSGNSQESVTEQDSKDSTYSLSSTLTLSKADYEKHKVYACEVTHQGLSSPVTKSFNRGEC | 5.7 fold | 9.6 fold | 7.3 fold | 0.14 fold | 4.9 fold | 0.8 fold | 5.9 fold | 0.12 fold | 0.9 fold |
| M103205H795-MY288 / M103202L889-SK1 (antibody, human IgG1, kappa, Fc variant of M103205H795-SG1, expressed with M103202L889-SK1 as light chain) heavy: not shown light: DIVMTQSPATLSLSPGERATLSCTSSQSVYHANWLSWFQQKPGQPPKLLIYWASTLAYGVPSRFSGSGSGTDFTLTISSLQPEDAATYYCAGGYGGGRYAFGQGTKVEIKRTVAAPSVFIFPPSDEQLKSGTASVVCLLNNFYPREAKVQWKVDNALQSGNSQESVTEQDSKDSTYSLSSTLTLSKADYEKHKVYACEVTHQGLSSPVTKSFNRGEC | 2.1 fold | 2.6 fold | 0.9 fold | 0.08 fold | 3.5 fold | 0.1 fold | 3.6 fold | 0.01 fold | 0.5 fold |
| M103205H795-MY289 / M103202L889-SK1 (antibody, human IgG1, kappa, Fc variant of M103205H795-SG1, expressed with M103202L889-SK1 as light chain) heavy: QVTLKESGPVLVKPTETLTLTCTVSGIDLSHDDISWVRQAPGKGLEWVGIISYAGSTYYASWAKGRLTISKDTSKNQVVLTMTNMDPVDTATYYCARGVPAYSHGGDLWGQGTLVTVSSASTKGPSVFPLAPSSKSTSGGTAALGCLVKDYFPEPVTVSWNSGALTSGVHTFPAVLQSSGLYSLSSVVTVPSSSLGTQTYICNVNHKPSNTKVDKKVEPKSCDKTHTCPPCPAPELLNGPSVFLFPPKPKDTLMISRTPEVTCVVVDVSHEDPEVKFNWYVDGVEVHNAKTKPREEQYNSTYRVVSVLTVLHQDWLNGKEYKCKVSNKALPKPIEKTISKAKGQPREPQVYTLPPSREEMTKNQVSLTCLVKGFYPSDIAVEWESNGQPENNYKTTPMVLDSDGSFFLYSKLTVDKSRWQQGNVFSCSVMHEALHNHYTQKSLSLSP light: DIVMTQSPATLSLSPGERATLSCTSSQSVYHANWLSWFQQKPGQPPKLLIYWASTLAYGVPSRFSGSGSGTDFTLTISSLQPEDAATYYCAGGYGGGRYAFGQGTKVEIKRTVAAPSVFIFPPSDEQLKSGTASVVCLLNNFYPREAKVQWKVDNALQSGNSQESVTEQDSKDSTYSLSSTLTLSKADYEKHKVYACEVTHQGLSSPVTKSFNRGEC | 2.5 fold | 3.4 fold | 1.6 fold | 0.07 fold | 2.4 fold | 0.8 fold | 2 fold | 0.11 fold | 0.3 fold |
